# According to the RNAGym collection of RNA variant scans (doi:10.1073/pnas.2313332121):
# Variants at the floor of the assay were thinned out.
# B1: TPR 5TU (parent)
# chain: GGAUCUUCUCGAUCUAACAAAAAAGACAAAUCUGCCACAAAGCUUGAGAGCAUCUUCGGAUGCAGAGGCGGCAGCCUUCGGUGGCGCGAUAGCGCCAACGUUCUCAACUAUGACACGCAAAACGCGUGCUCCGUUGAAUGGAGUUUAUCAUG
# Variants of: B1
# Assay: polymerase ribozyme fitness, log enrichment relative to wild type (log ratio); higher = more active; in vitro selection for triplet polymerase activity
# Outline: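 Both subunits of a heterodimeric triplet polymerase ribozyme were given their own mutant library, built by PCR and transcribed. Each library was annealed with a biotinylated primer, the partner subunit and triplets, incubated frozen at −7 °C, and its extended constructs gel-excised, captured on streptavidin beads and amplified by RT-PCR, all in one round done in triplicate. Fitness is the logarithm of genotype enrichment relative to wild-type enrichment, with replicates averaged by inverse-variance weighting. That logarithm is base 2, and Illumina-sequenced genotypes needed ≥10 input reads and ≥1 read per output.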
row,Variant,polymerase ribozyme fitness (log ratio)
1,A24G G92C,-2.81
2,A24C C69A C105A C114U A122U,≤ -4.2
3,A24U C93U,-1.27
4,G25C G42C C57U G70A C87A G143A,≤ -4.2
5,A23U A47G U55A,≤ -4.2
6,A24U C57U G62A,-0.097
7,G25A G68U U78C A91G C114G,≤ -4.2
8,A23G C27U C93G C103G A150G,≤ -4.2
9,A22U,0.491
10,A24C G42C G50U A91U C103A U134A,≤ -4.2
11,A24C C51U C54G G74U C85G A97U,-4.18
12,A22U A26G C36A G42U C96G G128U C132G U144G,≤ -4.2
13,A22U A52C C99U,-1.89
14,A22G U53A A66G C72G U90C U145G,≤ -4.2
15,A24C G71A U135C U146C U148A,≤ -4.2
16,A24U A47C G48C C85G A91G,≤ -4.2
17,A24U G83C C99G,-4.19
18,A23U G58C G68A C79G A150G,≤ -4.2
19,A24U C35A U45G A47C G48C A64C C93G,≤ -4.2
20,A24U G25C A37U G65C U90A C116G C131A G141C,≤ -4.2
21,A24C U56A G86A A150G,≤ -4.2
22,A22G G84U,-2.74
23,A22U A29U A39U U55A C79A C93G,≤ -4.2
24,A22U A28U U104G,≤ -4.2

row,Variant,polymerase ribozyme fitness (log ratio)
1,A24U C36G U111C C116A,≤ -4.2
2,A24C C87U,-3.57
3,A24U A30C G48U A60G G94C U109G A113U,≤ -4.2
4,A23G U90G C93A A107U,≤ -4.2
5,A24G A30G A52C U53G G59A C87U G92U G128A U139A,≤ -4.2
6,A23G G94U U148C,≤ -4.2
7,A23G C103A,-3.88
8,A23U A39G A91C,≤ -4.2
9,A22U G34A U55A G59C C95A C118G,-3.53
10,A23G C54A,-3.28
11,G25A U44G U77A G83U U104A,≤ -4.2
12,A24C U31C G68U U78C C85U,≤ -4.2
13,A22U C87G U104A C105A,≤ -4.2
14,A22U A28U A37U G42C C54A C103A,≤ -4.2
15,A22U C57A G70C U78A G80A,≤ -4.2
16,A22U C105U G136C,-2.55
17,A24C A29G G46U C85U C129G C131A G141C,≤ -4.2
18,A24C U44A G50U U55A,≤ -4.2
19,A22U G59A U101A,0.375
20,A23G A49C G65C G80U G86U C99A,≤ -4.2
21,A22G U55A U61A G94U,-3.37
22,A24U A28C C76A U82A C99U C118U G141C,≤ -4.2
23,A24C A41U C54A,≤ -4.2
24,A24C U56C A64C C96U,≤ -4.2

row,Variant,polymerase ribozyme fitness (log ratio)
1,G25U A28C G50C A52C C93G,≤ -4.2
2,A22G U56A C85U,-0.116
3,A23U G42A C51U G71A G94A U101G,≤ -4.2
4,A24U U53A,-0.894
5,A24G U55A C57U A73U U82G G92A A97U G141C,≤ -4.2
6,A22U C85G,-1.73
7,A24G C27U U31A A47C U77C C85U U102C U144C,≤ -4.2
8,A22U C54A G59C A122C G141A,-0.175
9,A22U A23U G70U C85U A89C A120G U144A,≤ -4.2
10,A22U C87A C99U C103G A142C,≤ -4.2
11,G25C C54U C57U C75U G126A,-2.79
12,G25C C99U,-3.13
13,A23C C118U U144A,≤ -4.2
14,A22G G92C,0.21
15,A23G C27G A40G U61A C131G G143U,≤ -4.2
16,A23C G34U,-3.82
17,A24U G34C U56A G84A G133A,-3.92
18,G25A A49G C95U,-2.94
19,A24U C87G C96U,≤ -4.2
20,A24U C93U A98G C132U A142G,-4.17
21,A23U A40U C51U U78G,≤ -4.2
22,G25C A41C C96G A110G U148C,≤ -4.2
23,A24G A120U,-3.9
24,A23U A24U U56A A106C A150U,-3.89

row,Variant,polymerase ribozyme fitness (log ratio)
1,A24G A28U U55A G140A,≤ -4.2
2,A22U A30C C32A A60C C85G G86A A89U A110G U135G U144G,≤ -4.2
3,A22U G48C G50U A120U U145C,-2.9
4,A24G A26U A39U U53A C57U G59A G68U G86A C99A A106U,-4.18
5,A23G A41C U44C A49C G58C A64C C85U A138G,≤ -4.2
6,A24U C54A,-0.922
7,G25C A37C C76A U101G U148G,≤ -4.2
8,A23U C76A,-3.84
9,A24U G50U G143C,-2.91
10,A23U A28G C32G C85U G128U C129A U146G,-4.14
11,A23C A110G U111A,≤ -4.2
12,A22G G86U,-0.647
13,G25C G48U U55A C85U A147C,-3.98
14,A24C A39G,-3.42
15,A22U A47C U55G G84U C125G,-3.06
16,A23C G25A C32A C63U C87A,≤ -4.2
17,G25A U33C C35A A73C A91G G117A C118U,≤ -4.2
18,A24G A26U C38U A47U C85U C116U C125A,≤ -4.2
19,A23C G81A A91U G143A,≤ -4.2
20,A24C G59U A73G A150U,-3.13
21,A23U C35A A60G G84C G86A C96A G140U,≤ -4.2
22,A24U A39G C51U C57A C85U C129G,≤ -4.2
23,A23U C93G,≤ -4.2
24,A22U C93U,-1.47

row,Variant,polymerase ribozyme fitness (log ratio)
1,A24U A40C A47U C69U C93U C118U U145A,-4.16
2,A22U A28U A47C C72G G84U C149A,≤ -4.2
3,A24U A47U C96U C116A G133A C149G,≤ -4.2
4,A24U A52C U56A A73G C93U,-3.52
5,A24G U90C C123G G136C A147G,≤ -4.2
6,A24G C79A C96A G141A,≤ -4.2
7,A24G C54U,-2.83
8,A23C C54G A64G C125A U148C C149A A150U,≤ -4.2
9,A24C C125U,≤ -4.2
10,A24C G34C C35A A122G U134A G143C,-4.11
11,A23G C76U C85A,≤ -4.2
12,A23U G70U U78A G94A C95U C114U,≤ -4.2
13,A22U C54U A107U U134C U145C,-4.02
14,A22U U53A,-1.05
15,A24U U78C C87A,≤ -4.2
16,A23C G50U C76U C79A C85U C99G,≤ -4.2
17,A24G U55A,-3.22
18,A24U A39U A89C,-4.16
19,A24G G88U,≤ -4.2
20,A24C C54G G74A U82A A89U U146A,≤ -4.2
21,A23C U53C G58U G94C A115U C129U,≤ -4.2
22,G25A C85A C95U,-2.49
23,A23U A73U G88C,≤ -4.2
24,A23G U127G,≤ -4.2

row,Variant,polymerase ribozyme fitness (log ratio)
1,A24U C35U C96U C105U A147G,-3.09
2,A24U C96G G143U A147U,-3.7
3,A23C C35A C87A,-4.05
4,A24U A39G U82A C95G U135A,-3.89
5,A22U G83C G86U C108A C129U,≤ -4.2
6,A22U A91G,-3.05
7,A24G U56A A121C G133C,≤ -4.2
8,A22U U55A U56A A97U,-0.631
9,A24G G83C,-3.62
10,A23G G58U C87A A115U,≤ -4.2
11,A24G C27U G42C U55G,≤ -4.2
12,G25U A26G C32G C85G A106G C129U G140C G143A,≤ -4.2
13,A24U G42A U53A U90G A107U C108A U145C,≤ -4.2
14,A22U G124A,0.0485
15,A23U A52C,≤ -4.2
16,A24U G84C C114U G140U,≤ -4.2
17,A23G G34U G141C,≤ -4.2
18,A24G C27A G84U G86A C131A,≤ -4.2
19,A24C C87A A106G U135C,≤ -4.2
20,A24C C38A U77A G84C A89U,≤ -4.2
21,A24C U31C U33G C76G C85U C125G,≤ -4.2
22,A22U G68U G74A U78A G92A C125A G140U U145G,≤ -4.2
23,A24G A52C A110U,≤ -4.2
24,A23C A40U G48U G94C C99G U144A,≤ -4.2

row,Variant,polymerase ribozyme fitness (log ratio)
1,A23U A106G A138U,≤ -4.2
2,G25C A52G U56A A60C G67A C99U C116U G133C U135A,≤ -4.2
3,A24U C93U C125G G133A A142G A150U,≤ -4.2
4,A23U G42U G58C G65U C75G G141U,≤ -4.2
5,A23U C27U U33G G42U G86U U101A G152A,≤ -4.2
6,A23U U53A U55G C95U C103U C114U G126A G136U A150U,≤ -4.2
7,A24U C76A C85A,-1.65
8,A22G U44A U53C G67C C99G G126A U134C,≤ -4.2
9,A24G C87U,-2.3
10,A23U C79U U101G G141C,≤ -4.2
11,A22G G84U G88U A89U,≤ -4.2
12,A22U U44A U45A A122G G140C G143U U146C,≤ -4.2
13,G25C A28C C32A A110G G126C,≤ -4.2
14,A22U G152A,-2.39
15,A23C C131G U134G,≤ -4.2
16,G25C C57A G83A G86U C96G A106G U127G,≤ -4.2
17,A24U A47U G50A G59U A60G C87U C103G U109A A110G,-4.01
18,A23G C76G C87U A119G G140U,≤ -4.2
19,A22U G25U C35U C76G G126U U135A,≤ -4.2
20,A23G A29U G59A G94A,≤ -4.2
21,A24C G141C,-3.54
22,A23U G48A A113G A120U,≤ -4.2
23,A24U G141A,0.58
